Measurements from patent US20090029370, “REAL TIME NUCLEIC ACID DETECTION IN VIVO USING PROTEIN COMPLEMENTATION” (TRUSTEES OF BOSTON UNIVERSITY, published 2009).

Experiments:
Conditions in all cases: protein: synthetic; tags: custom-synthesized peptide
[1] = target: Rev peptide (printed HTLV-1 Rev); assay: EMSA; cross-reactivity; 50 mM Tris-HCl pH 8.0, 50 mM KCl, 30 C
[2] = target: T1, Rex peptide (printed HIV-1 Rex in tables, HTLV-1 Rex in text) (Human T-cell leukemia virus type 1?); assay: EMSA; 50 mM Tris-HCl pH 8.0, 50 mM KCl, 30 C
T1 chain: MPKTRRRPRRSQRKRP

λN peptide = target: T2, λN peptide (Bacteriophage lambda, UniProt P03045 SEQ:1-22); assay: EMSA; 50 mM Tris-HCl pH 8.0, 50 mM KCl, 30 C
T2 chain: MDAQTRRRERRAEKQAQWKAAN

[3] = target: T1, Rex peptide (printed HIV-1 Rex in …); assay: EMSA; 50 mM Tris-HCl pH 8.0, 50 mM KCl, 30 C, ethidium bromide stain
Description: Experiments in vitro to choose aptamer-peptide pairs. Based on available data we chose three peptide/aptamer pairs; (i) […]; (ii) Bacterophage λN; and (iii) […] (see Table 1) and tested their binding affinity with cognate partner and cross-reactivity with two other RNA aptamers in vitro. We used non-radioactive gel-shift assay under conditions when fixed concentrations of RNA aptamer were allowed to form complexes with increasing ARM-peptide concentrations. We quantified the amount of the unbound RNA aptamer and the amount of the shifted complex (Table 1). […] At the same time, […] peptide did show some cross-reactivity with the two non-matched RNA aptamers.
In Vitro Gel-Shift Assay. RNAs were first denatured by heating at 95° C. in buffer (50 mM pH 8.0 Tris-HCl, 50 mM KCl) for 3 minutes and then slowly cooled to room temperature to renature the RNAs. Renatured RNAs and peptides were mixed in a common buffer (50 mM Tris-HCl, pH 8.0, 50 mM KCl) at 30° C. for 15 minutes. Peptide-RNA aptamer complexes were analyzed using gel electrophoresis with 15% TBE gel. RNA aptamers and peptide-RNA aptamer complexes were stained with ethidium bromide.

B1: λN aptamer (boxB) (ssRNA)
RNA: GGAUCCGGGCCCUGAAGAAGGGCCCUUUCCUUU
B1: binds [1]; no binding [2]; binds (λN peptide).

B2: anti-Rex aptamer (ssRNA)
RNA: UAGGCGACGGUACGCAAGUACUCUUGCGCCGGCCUA
B2: binds [3]; no binding (λN peptide).

B3: anti-Rev aptamer (ssRNA)
RNA: GGCUGGACUCGUACUUCGGUACUGGAGAAACAGCC
B3: no binding [2]; no binding (λN peptide).
